These results are taken from publication PMC6105683 (Nature Communications, 2018).

Assay in all cases: MST
For one data set, the system named is GST-ZCCHC3;GST-cGAS.
Data set [1] deals with GST-cGAS.
The subject of another data set is GST-ZCCHC3.
The target in data set [2] is T1, GST-cGAS (UniProt Q8N884 1-522).
T1 construct: also called recombinant cGAS
The note with it: both partners purified.

T1 sequence (Q8N884 whole entry): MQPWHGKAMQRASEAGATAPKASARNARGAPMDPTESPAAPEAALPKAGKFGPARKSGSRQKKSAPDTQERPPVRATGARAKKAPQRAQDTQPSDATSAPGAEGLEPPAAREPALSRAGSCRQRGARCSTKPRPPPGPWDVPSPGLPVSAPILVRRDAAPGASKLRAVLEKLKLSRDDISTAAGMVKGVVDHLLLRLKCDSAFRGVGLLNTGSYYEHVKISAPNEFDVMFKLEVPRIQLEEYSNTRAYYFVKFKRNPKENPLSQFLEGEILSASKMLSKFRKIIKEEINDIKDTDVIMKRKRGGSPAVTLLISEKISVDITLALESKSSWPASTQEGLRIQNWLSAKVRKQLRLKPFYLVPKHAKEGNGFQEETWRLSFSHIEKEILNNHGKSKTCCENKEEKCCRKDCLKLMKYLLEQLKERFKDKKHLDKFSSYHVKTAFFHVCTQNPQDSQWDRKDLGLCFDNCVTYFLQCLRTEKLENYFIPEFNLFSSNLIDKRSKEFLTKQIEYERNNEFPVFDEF

HSV60: the figures for the Kd with GST-ZCCHC3;GST-cGAS, in the data set on GST-cGAS [1] and with GST-ZCCHC3 were 7.62 nM, 600 nM and 866 nM, respectively.

B1: GST-ZCCHC3 (natural protein, UniProt Q9NUD5 1-403, looked up)
chain: MATGGGAEEERKRGRPQLLPPARPAARGEEADGGREKMGWAQVVKNLAEKKGEFREPRPPRREEESGGGGGSAGLGGPAGLAAPDLGDFPPAGRGDPKGRRRDPAGEAVDPRKKKGAAEAGRRKKAEAAAAAMATPARPGEAEDAAERPLQDEPAAAAGPGKGRFLVRICFQGDEGACPTRDFVVGALILRSIGMDPSDIYAVIQIPGSREFDVSFRSAEKLALFLRVYEEKREQEDCWENFVVLGRSKSSLKTLFILFRNETVDVEDIVTWLKRHCDVLAVPVKVTDRFGIWTGEYKCEIELRQGEGGVRHLPGAFFLGAERGYSWYKGQPKTCFKCGSRTHMSGSCTQDRCFRCGEEGHLSPYCRKGIVCNLCGKRGHAFAQCPKAVHNSVAAQLTGVAGH
modifications: lysine residues labelled with a Blue-NHS labeling kit, dye:protein molar ratio of 3
notes: also called recombinant ZCCHC3
B1 showed a Kd with GST-cGAS [2] of 79.6 ± 12.5 nM.

The term Kd denotes the free concentration of one partner at which half of the binding sites on the other are occupied at equilibrium, for simple one-to-one binding. A lower Kd goes with tighter binding.
